Results taken from patent publication US20220056125A1 (CEPHALON, published 2022).
Numbering of substitutions follows the chain as printed.

T1: human PAR-2 (human, UniProt P55085 26-397)
T1 sequence: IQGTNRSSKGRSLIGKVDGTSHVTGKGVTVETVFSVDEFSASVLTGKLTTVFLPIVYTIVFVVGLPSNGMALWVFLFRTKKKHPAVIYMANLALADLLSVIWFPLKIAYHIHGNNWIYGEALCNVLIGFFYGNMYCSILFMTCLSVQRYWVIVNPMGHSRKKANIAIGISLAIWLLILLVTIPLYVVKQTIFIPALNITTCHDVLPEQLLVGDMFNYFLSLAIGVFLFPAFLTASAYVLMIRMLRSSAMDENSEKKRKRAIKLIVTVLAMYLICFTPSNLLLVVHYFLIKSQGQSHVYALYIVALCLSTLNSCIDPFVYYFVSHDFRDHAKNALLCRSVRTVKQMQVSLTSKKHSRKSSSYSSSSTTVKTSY

T2: human PAR-1 (human, UniProt P25116 22-425)
T2 construct: also called huPAR-1
T2 sequence: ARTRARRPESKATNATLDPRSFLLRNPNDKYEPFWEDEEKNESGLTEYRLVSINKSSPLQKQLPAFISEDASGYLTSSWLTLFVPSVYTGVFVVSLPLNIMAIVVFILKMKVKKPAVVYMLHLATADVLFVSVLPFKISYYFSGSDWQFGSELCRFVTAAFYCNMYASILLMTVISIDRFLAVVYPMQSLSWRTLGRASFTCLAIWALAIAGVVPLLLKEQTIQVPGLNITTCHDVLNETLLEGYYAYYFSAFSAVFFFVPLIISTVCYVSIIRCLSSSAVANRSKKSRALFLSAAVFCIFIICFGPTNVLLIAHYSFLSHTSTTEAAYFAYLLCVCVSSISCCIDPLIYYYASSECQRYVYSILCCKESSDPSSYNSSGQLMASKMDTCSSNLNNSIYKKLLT

B1: P24E301 (antibody, human IgG4 S228P, kappa, V domains shown)
VH: QVQLVQSGAEVKKPGSSVKVSCKASGFSLSSYAISWVRQAPGQGLEWMGVIWGNGNTYYAQKFQGRVTITADESTSTAYMELSSLRSEDTAVYYCARWKGYKDYPFDYWGQGTLVTVSS
VL: EIVLTQSPATLSLSPGERATLSCKASQNIYKWLDWYQQKPGQAPRLLIYNTNSLATGIPARFSGSGSGRDFTLTISSLEPEDFAVYYCLQHNSGWTFGGGTKVEIKR
B2: P24E794 (antibody, human IgG4 S228P, kappa, V domains shown)
VH: B1 VH with K99R
VL: B1 VL with K24R, I29V, T51A, N52Y, L54R, L89Q
B3: P24E883 (antibody, human IgG4 S228P, kappa, V domains shown)
VH: B1 VH with K99R
VL: B1 VL with I29V, T51A, N52Y, L89Q
B4: P24E889 (antibody, human IgG4 S228P, kappa, V domains shown)
VH: B1 VH with K99R
VL: B1 VL with K24R, T51A, N52Y, L89Q
B5: P24E914 (antibody, human IgG4 S228P, kappa, V domains shown)
VH: B1 VH
VL: B1 VL with K24R, T51A, N52Y, L89Q
B6: P24E743 (antibody, human IgG4 S228P, kappa, V domains shown)
VH: B1 VH with K99R
VL: B1 VL with I29V, T51A, N52Y, L89Q, N92G
B7: Ab5 (antibody, human IgG4, V domains shown)
VH: QVQLQQPGSELVKPGASVKLSCKASGYTFTNYWMHWVKQRPGQGLEWIGMIHPNSDFSNYNEKFKKKATLTVDKSSSTAYMQLSSLTSEDSAVYFCAKGPNYYGSRYWYFDVWGTGTTVTVSS
VL: DIVLTQSPTSLAVSLGQRATISCRASESVDSYGNSFLHWYQQKAGQPPKLLIYRTSNLESGIPARFSGSGSRTDFTLTINPVEADDVATYFCQQSNEDPYTFGGGTKLELK
notes: also called Anti-PAR-2 antibody # 5
B8: Ab225 (antibody, human IgG4, V domains shown)
VH: QVQLKESGPGLVQPSQTLSLTCTVSGFSLTSYHVSWVRQSPGKGLEWMGIIWTGGSTAYNSLLKSRLSISRDTSKSQVFLKMNSLQTEDTATYYCARRGAYPFYFDYWGQGVMVTVSS
VL: EIVLTQSPTTMAASPGEKVTITCRASSSVRSMYWYQQKSGASPKPWIYETSKLTSGVPDRFSGSGSGTSYSFTISSMGTEDAGTYYCHQWTTTPYTFGAGTKLELK
notes: also called Anti-PAR-2 antibody # 225
B9: Ab245 (antibody, human IgG4, V domains shown)
VH: B8 VH with S19F, S40P, S65P, S68T, Q86R, A100L
VL: EVVLTQSPTTMAASPGEKVTITCRATSSVSHMYWYQQKSGASPKPWIYETSKLASGVPDRFRGSGSGTSYSFTISSMETEDVATYYCHQWSSFPYTFGPGTKLELK
notes: also called Anti-PAR-2 antibody # 245
B10: Ab201 (antibody, human IgG4, V domains shown)
VH: QVQLQQSGPELVKPGASVKISCKASGFSFTSFYIHWVNQRPGQGLEWIGWIYPGSGNTLYNEKFKGKATLTADTSSSTAYIHLSSLTSEDSAVYYCTRGPLFYGSSHWYFDVWGMGTTVTVSS
VL: EVQITQSPSYLAASPGETITINCRASKSISKYLAWYQEKPGKTNKLLIYSGSTLQSGIPSRFSGSGSGTDFTLTISSLEPEDFAMYYCQQHNKYPLTFGAGTRLELK
B11: Ab140 (antibody, human IgG4, V domains shown)
VH: EVQLVESGGGLVQPKGSLKLSCAASGFTFNSYAMHWVRQAPGKGLEWVACIRSKSSYYATYYADSVKDRFTISRHDSQSMLYLQMNNLKTEDTAMYYCVREDYYGSSYDYWGQGTTLTVSS
VL: QIVLTQSPAIMSASLGERVTMTCTASSSVSSSYLHWYQQKPGSSPKLWIYATSNLASGVPARFSGSGSGTSYSLTISSMEAEDAATYYCHQYHRSPLTFGAGTKLELK
notes: also called Anti-PAR-2 antibody # 140
B12: Ab189 (antibody, human IgG4, V domains shown)
VH: B11 VH with S31T, C50R, S55T, S56T, Y57N, H75D, M85I, N86S, Y108L
VL: B11 VL with S30I, Y50F, A51S, S78T
notes: also called Anti-PAR-2 antibody # 189
B13: Ab261 (antibody, human IgG4, V domains shown)
VH: EVQLVESGGGLVQPGRSLKLSCVASGFTFNNYWMTWIRQAPGKGLEWVASITNTGGNTYYPDSVKGRFTISRDNAKSTLYLQMNSLRSEDTATYYCTRDRIIRGADWFAYWGQGTLVTVSS
VL: DIQMTQSPHSLSASLGETVSIECLASEGISNYLAWFQQKPGKSPQLLIYYASSLQDGVPSRFSGSGSGTQYSLKISNMQPEDEGVYYCQQGYKYPWTFGGGTKLELK
notes: also called Anti-PAR-2 antibody # 261
B14: Ab435 (antibody, human IgG4, V domains shown)
VH: B13 VH with A24G, K43W, N57R, I101V, I102Y, R103Y, A105S, D106N, A109V
VL: B13 VL with F36Y, V85I, G91H
B15: Ab228 (antibody, human IgG4, V domains shown)
VH: B13 VH with A24V, T54S, A105S, D106T
VL: B13 VL with F36Y, Q89H
B16: Ab227 (antibody, human IgG4, V domains shown)
VH: B13 VH with T54S, N57R, I70V, N74S, A105S, D106T, A109T
VL: B13 VL with K103E
notes: also called Anti-PAR-2 antibody # 227
B17: Ab380 (antibody, human IgG4, V domains shown)
VH: B13 VH with S25T, T54S, N74D, D99V, I101V, I102Y, R103Y, A105S, D106N, A109V
VL: B13 VL
notes: also called Anti-PAR-2 antibody # 380
B18: Ab234 (antibody, human IgG4, V domains shown)
VH: EVQLVETGGGLVQPGRSLKLSCVASGFTFNNYWLYWIRQAPGKGLEWVSSINNDGGGTYYPDSVKGRFTVSRDNAENTVYLQMNSLRSEDTATYYCARDRAFIRGRFAYWGQGTLVTVSS
VL: EIVLTQSPTTMAASPGEKVTLTCRASSSVIYMHWYQQRSGASPKLWIYETSKLASGVPNRFGGSGSGTSYSLTINSMETEDAATYYCQQGSYYPWTFGGGTKLELK
notes: also called Anti-PAR-2 antibody # 234
B19: Ab192 (antibody, human IgG4, V domains shown)
VH: QVQLQQPGTELVKPGASVKLSCKASGYTFTSYWMHWIKQRPGQGLEWIGNINPSSGGTNYNEKFKTKATLTVDKSSSTAYMQLSSLTSEDSAVYYCAGEAYSNYVAWFAYWGQGTLVTVSS
VL: ENVLTQSPAIMSASLGEKVTMSCRASSSVNYMYWYQQKSDASPKLWIYYTSNLAPGVPARFSGSGSGTSYSLTISSMEGEDAATYYCQQFTTSPYTFGGGTKLEIK
notes: also called Anti-PAR-2 antibody # 192
B20: Ab209 (antibody, human IgG4, V domains shown)
VH: B19 VH with S55T, G57S, Y60F, E62V, A79T, S84N
VL: B19 VL with Q36R, A59T
notes: also called Anti-PAR-2 antibody # 209

Target: T1, human PAR-2
Assay: cell-based or functional assay

PAR-2 β-arrestin cell based assay IC50, 2 µM SLIGKV [nM]	Binder
1.48	B1
0.89	B2
1.21	B3
0.97	B4
0.94	B5
1.51	B6

Target: T2, human PAR-1
Assay: flow cytometry, transfected Expi293F cells
Experimental: Paired heavy and light chains encoded by these sequence pairs were expressed as a full length human IgG4 isotype antibodies and assessed for PAR-2 binding and selectivity by flow cytometry. […] Cells were used for flow cytometric analysis 36-48 hours post-transfection. Use of Nt-PAR-2 as a target allowed antibodies which bound the N-terminal residues of PAR-2 (which comprise the protease-cleavage sites on PAR-2) to be distinguished from antibodies which bound other extracellular sites on PAR-2, such as the PAR-2-activating ligand-binding site(s). Expi293F cells, transiently expressing one of each of the different target proteins were labelled with different intensities of a single fluorphor Encoder dye (Intellicyt) for 10 mins at either 1 in 250 dilution for high intensity and/or 1 in 1500 dilution for moderate intensity, enabling simultaneous analysis of multiple cell populations. After washing the cells were then mixed in an equal ratio with the unlabeled cell type and analyzed for antibody binding.
The cells were plated in 96 well plates at 2×10⁵ cells/well. Following a wash step using Phosphate buffered saline (PBS), the primary antibody (anti-PAR-2 antibody) was added at a concentration of 10 μg/mL in 50 μL of FACS buffer (0.5% w/v BSA in PBS) to each well and incubated for 10-15 mins. Following a wash step, secondary antibody (anti-human Fc-FITC) was added to the wells at 1:200 dilution in 50 μL for 10-15 mins. Following a washing step, the cells were re-suspended in fluorescence-activated cell sorting (FACS) buffer. The flow cytometry analysis was performed on an Intellicyt iQue screener. Gates were drawn around the different intensities of encoder dye-positive cells and these populations were analyzed separately from each other and the unlabeled cells for binding by the primary antibody.

binding result	Binder
no binding (tested: 10 µg/mL)	B7
no binding (tested: 10 µg/mL)	B8
no binding (tested: 10 µg/mL)	B9
no binding (tested: 10 µg/mL)	B10
no binding (tested: 10 µg/mL)	B11
no binding (tested: 10 µg/mL)	B12
no binding (tested: 10 µg/mL)	B13
no binding (tested: 10 µg/mL)	B14
no binding (tested: 10 µg/mL)	B15
no binding (tested: 10 µg/mL)	B16
no binding (tested: 10 µg/mL)	B17
no binding (tested: 10 µg/mL)	B18
no binding (tested: 10 µg/mL)	B19
no binding (tested: 10 µg/mL)	B20

Target: T1, human PAR-2
Assay: cell-based or functional assay
Remark: another data set of the same source

IC50, PAR-2 β-arrestin cell assay [nM]	Binder
23.1	B7
3.4	B8
3.8	B9
10.7	B10
20.1	B11
123	B12
19.9	B13
53.8	B14
33.3	B15
10.2	B16
57.1	B17
4.8	B18
100	B19
65.5	B20
